Results as given in PMC9482650, “Quantitative fragmentomics allow affinity mapping of interactomes” (Nature Communications, 2022).

Columns and labels:
Assay in all cases: holdup assay
Parameters in all cases: key: below the threshold = too weak to quantify, mostly under pKd 3.1 to 4
Conditions in all cases: plain residues with an end cap or a label only (N-terminal biotin on a linker: ahx)
GRIP1_5, Q9Y3R0 = target: T1, GRIP1_5, Q9Y3R0
T1 sequence (Q9Y3R0 568-668, limits assumed, looked up): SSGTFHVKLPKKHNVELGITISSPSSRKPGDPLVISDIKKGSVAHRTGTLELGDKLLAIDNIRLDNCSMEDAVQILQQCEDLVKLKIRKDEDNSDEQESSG

PTPN3, P26045 = target: PTPN3, P26045
Sequence of PTPN3, P26045 (P26045 505-587): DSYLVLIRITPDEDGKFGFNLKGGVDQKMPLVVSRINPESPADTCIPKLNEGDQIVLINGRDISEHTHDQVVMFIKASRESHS

LNX1_3, Q8TBB1 = target: LNX1_3, Q8TBB1
Sequence of LNX1_3, Q8TBB1 (Q8TBB1 500-596): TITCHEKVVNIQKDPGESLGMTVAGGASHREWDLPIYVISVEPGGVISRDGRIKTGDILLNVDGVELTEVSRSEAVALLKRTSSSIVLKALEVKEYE

SHANK1, Q9Y566 = target: T2, SHANK1, Q9Y566
T2 sequence (Q9Y566 658-767, limits assumed, looked up): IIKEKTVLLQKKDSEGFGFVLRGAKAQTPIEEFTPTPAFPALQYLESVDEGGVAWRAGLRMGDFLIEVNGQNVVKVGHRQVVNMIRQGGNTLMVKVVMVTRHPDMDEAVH

PDLIM1, O00151 = target: PDLIM1, O00151
Sequence of PDLIM1, O00151 (O00151 1-87): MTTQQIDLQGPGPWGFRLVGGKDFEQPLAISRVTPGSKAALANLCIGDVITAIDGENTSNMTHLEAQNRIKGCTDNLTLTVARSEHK

FRMPD4, Q14CM0 = target: FRMPD4, Q14CM0
Sequence of FRMPD4, Q14CM0 (Q14CM0 67-160): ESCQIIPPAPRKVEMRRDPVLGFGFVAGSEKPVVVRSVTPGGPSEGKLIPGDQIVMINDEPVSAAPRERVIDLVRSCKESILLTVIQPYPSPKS

MAGI3_2, Q5TCQ9 = target: MAGI3_2, Q5TCQ9
Sequence of MAGI3_2, Q5TCQ9 (Q5TCQ9 398-503): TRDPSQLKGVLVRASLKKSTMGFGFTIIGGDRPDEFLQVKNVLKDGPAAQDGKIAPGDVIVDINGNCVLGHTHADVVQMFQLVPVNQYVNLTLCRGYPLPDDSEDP

Inadl_1, Q8NI35 = target: Inadl_1, Q8NI35
Sequence of Inadl_1, Q8NI35 (Q8NI35 113-229): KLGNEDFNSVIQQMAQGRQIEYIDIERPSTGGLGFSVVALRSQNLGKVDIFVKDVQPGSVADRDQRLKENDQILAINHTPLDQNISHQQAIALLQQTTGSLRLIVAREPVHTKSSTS

MPDZ_5, O75970 = target: T3, MPDZ_5, O75970
T3 sequence (O75970 695-796, limits assumed, looked up): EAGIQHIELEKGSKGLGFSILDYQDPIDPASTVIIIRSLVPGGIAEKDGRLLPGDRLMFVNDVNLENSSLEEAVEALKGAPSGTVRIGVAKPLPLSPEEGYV

PDZD7_3, Q9H5P4 = target: T4, PDZD7_3, Q9H5P4
T4 sequence (Q9H5P4 857-944, limits assumed, looked up): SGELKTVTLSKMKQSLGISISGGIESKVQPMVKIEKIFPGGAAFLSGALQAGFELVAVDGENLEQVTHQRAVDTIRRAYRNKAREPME

DLG2_3, Q15700 = target: DLG2_3, Q15700
MAGI2_3, Q86UL8 = target: MAGI2_3, Q86UL8
Sequence of MAGI2_3, Q86UL8 (Q86UL8 600-682): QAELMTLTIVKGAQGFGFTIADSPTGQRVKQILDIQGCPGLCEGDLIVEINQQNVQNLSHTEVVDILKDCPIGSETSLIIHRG

DFNB31_3, Q9P202 = target: T5, DFNB31_3, Q9P202
T5 sequence (Q9P202 811-907, limits assumed, looked up): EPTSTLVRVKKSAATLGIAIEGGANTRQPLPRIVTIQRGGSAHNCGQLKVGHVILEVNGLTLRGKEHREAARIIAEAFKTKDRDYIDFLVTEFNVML

Inadl_10, Q8NI35 = target: Inadl_10, Q8NI35
Sequence of Inadl_10, Q8NI35 (Q8NI35 1673-1763): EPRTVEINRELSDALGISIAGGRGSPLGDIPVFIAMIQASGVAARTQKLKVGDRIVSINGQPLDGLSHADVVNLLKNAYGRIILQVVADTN

Inadl_4, Q8NI35 = target: Inadl_4, Q8NI35
Sequence of Inadl_4, Q8NI35 (Q8NI35 547-651): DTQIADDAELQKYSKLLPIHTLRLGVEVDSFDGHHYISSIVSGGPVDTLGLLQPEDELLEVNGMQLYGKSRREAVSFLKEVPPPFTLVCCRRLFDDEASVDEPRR

NOS1, P29475 = target: NOS1, P29475
Sequence of NOS1, P29475 (P29475 9-101): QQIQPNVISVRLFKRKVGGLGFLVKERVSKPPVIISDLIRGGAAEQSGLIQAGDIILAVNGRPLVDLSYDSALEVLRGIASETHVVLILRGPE

FRMPD3, Q5JV73 = target: FRMPD3, Q5JV73
Sequence of FRMPD3, Q5JV73 (Q5JV73 12-100): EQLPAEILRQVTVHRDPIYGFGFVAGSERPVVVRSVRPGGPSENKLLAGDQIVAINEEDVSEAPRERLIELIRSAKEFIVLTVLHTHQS

PDZRN4_1, Q6ZMN7 = target: PDZRN4_1, Q6ZMN7
Sequence of PDZRN4_1, Q6ZMN7 (Q6ZMN7 213-318): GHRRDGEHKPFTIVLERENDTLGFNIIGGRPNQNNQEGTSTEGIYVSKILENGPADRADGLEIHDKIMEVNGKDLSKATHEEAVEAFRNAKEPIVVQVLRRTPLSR

SIPA1L2, Q9P2F8 = target: T6, SIPA1L2, Q9P2F8
T6 sequence (Q9P2F8 945-1036, limits assumed, looked up): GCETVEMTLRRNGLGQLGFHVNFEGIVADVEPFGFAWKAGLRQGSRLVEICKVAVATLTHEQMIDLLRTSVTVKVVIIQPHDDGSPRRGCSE

FRMPD1, Q5SYB0 = target: T7, FRMPD1, Q5SYB0
T7 sequence (Q5SYB0 52-145, limits assumed, looked up): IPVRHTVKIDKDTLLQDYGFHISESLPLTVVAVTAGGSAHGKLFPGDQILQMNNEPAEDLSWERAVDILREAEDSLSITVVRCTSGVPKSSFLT

GRIP1_4, Q9Y3R0 = target: T8, GRIP1_4, Q9Y3R0
T8 sequence (Q9Y3R0 467-571, limits assumed, looked up): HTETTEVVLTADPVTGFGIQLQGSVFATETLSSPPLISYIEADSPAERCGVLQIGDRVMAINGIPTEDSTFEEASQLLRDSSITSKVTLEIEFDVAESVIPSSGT

FRMPD2_1, Q68DX3 = target: FRMPD2_1, Q68DX3
Sequence of FRMPD2_1, Q68DX3 (Q68DX3 770-861): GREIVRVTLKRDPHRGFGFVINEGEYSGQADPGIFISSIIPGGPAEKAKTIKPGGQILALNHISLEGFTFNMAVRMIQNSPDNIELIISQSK

LNX2_2, Q8N448 = target: T9, LNX2_2, Q8N448
T9 sequence (Q8N448 334-432, limits assumed, looked up): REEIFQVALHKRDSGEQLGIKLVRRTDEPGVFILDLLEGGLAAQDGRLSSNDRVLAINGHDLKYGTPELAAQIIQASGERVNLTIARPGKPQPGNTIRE

NHERF4_2, Q86UT5 = target: NHERF4_2, Q86UT5
Sequence of NHERF4_2, Q86UT5 (Q86UT5 220-308): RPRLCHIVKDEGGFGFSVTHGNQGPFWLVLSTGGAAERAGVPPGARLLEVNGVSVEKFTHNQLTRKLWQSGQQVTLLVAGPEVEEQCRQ

Inadl_6, Q8NI35 = target: Inadl_6, Q8NI35
Sequence of Inadl_6, Q8NI35 (Q8NI35 1058-1167): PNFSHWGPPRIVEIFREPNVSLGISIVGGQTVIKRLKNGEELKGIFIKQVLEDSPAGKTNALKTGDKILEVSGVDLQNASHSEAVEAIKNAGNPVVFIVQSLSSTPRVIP

APBA1_2, Q02410 = target: T10, APBA1_2, Q02410
T10 sequence (Q02410 742-832, limits assumed, looked up): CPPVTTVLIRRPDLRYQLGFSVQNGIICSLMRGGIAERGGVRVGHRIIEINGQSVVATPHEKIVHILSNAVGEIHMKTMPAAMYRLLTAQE

PARD3B_1, Q8TEW8 = target: T11, PARD3B_1, Q8TEW8
T11 sequence (Q8TEW8 196-299, limits assumed, looked up): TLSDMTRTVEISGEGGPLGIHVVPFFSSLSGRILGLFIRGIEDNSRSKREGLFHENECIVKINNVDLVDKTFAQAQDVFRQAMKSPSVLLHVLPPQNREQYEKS

pKd (GRIP1_5, Q9Y3R0): below the threshold
pKd (PTPN3, P26045): 3.99
pKd (LNX1_3, Q8TBB1): below the threshold
pKd (SHANK1, Q9Y566): 4.8
pKd (PDLIM1, O00151): 3.61
pKd (FRMPD4, Q14CM0): below the threshold
pKd (MAGI3_2, Q5TCQ9): below the threshold
pKd (Inadl_1, Q8NI35): below the threshold
pKd (MPDZ_5, O75970): below the threshold
pKd (PDZD7_3, Q9H5P4): 3.51
pKd (DLG2_3, Q15700): below the threshold
pKd (MAGI2_3, Q86UL8): below the threshold
pKd (DFNB31_3, Q9P202): below the threshold
pKd (Inadl_10, Q8NI35): below the threshold
pKd (Inadl_4, Q8NI35): below the threshold
pKd (NOS1, P29475): below the threshold
pKd (FRMPD3, Q5JV73): below the threshold
pKd (PDZRN4_1, Q6ZMN7): below the threshold
pKd (SIPA1L2, Q9P2F8): below the threshold
pKd (FRMPD1, Q5SYB0): below the threshold
pKd (GRIP1_4, Q9Y3R0): below the threshold
pKd (FRMPD2_1, Q68DX3): below the threshold
pKd (LNX2_2, Q8N448): below the threshold
pKd (NHERF4_2, Q86UT5): below the threshold
pKd (Inadl_6, Q8NI35): below the threshold
pKd (APBA1_2, Q02410): below the threshold
pKd (PARD3B_1, Q8TEW8): below the threshold
Binder: GIFPTLTSPL [SHROOM3, Q8TF72]
